Results: US10370436B2, “Anti-pseudomonas Psl binding molecules and uses thereof” (priority 2011, dated 2019)

Tested on: P. aeruginosa strains PAO1, 33356, 6294, 6077
Assay: P. aeruginosa acute pneumonia model, survival
Assay type: in vivo, BALB/c mice
Conditions: strain 6077 (O11) 8×10^5 or 6×10^5 CFU; 5 and 1 mg/kg; FIGS. 6E, 6F
Method: FIG. 6 (A-G): Survival rates for animals treated with anti-Psl monoclonal antibodies Cam-003 or WapR-004 in a P. aeruginosa acute pneumonia model. (A-D) Animals were treated with Cam-003 at 45, 15, and 5 mg/kg and R347 at 45 mg/kg or PBS 24 hours prior to intranasal infection with (A) PAO1 (1.6×10^7 CFU), (B) 33356 (3×10^7 CFU), (C) 6294 (7×10^6 CFU), (D) 6077 (1×10^6 CFU). (E-F) Animals were treated with WapR-004 at 5 and 1 mg/kg as indicated followed by infection with 6077 at (E) (8×10^5 CFU), or (F) (6×10^5 CFU). Animals were carefully monitored for survival up to 72 hours (A-D) or for 120 hours (E-F). (G) Animals were treated with Cam-003 at 15 mg/kg or 5 mg/kg, or R347 at 15 mg/kg 24 hours prior to intranasal infection with PAO1 (4.4×10^7 CFU), and Cam-003 at 15 mg/kg 24 hours prior to intranasal infection with PAO1ΔpslA (3×10^7 CFU). In all experiments, PBS and R347 served as negative controls. Results are represented as Kaplan-Meier survival curves; differences in survival were calculated by the Log-rank test for Cam-003 vs. R347. (A) Cam-003 (45 mg/kg—P<0.0001; 15 mg/kg—P=0.0003; 5 mg/kg—P=0.0033). (B) Cam-003 (45 mg/kg—P=0.0012; 15 mg/kg—P=0.0012; 5 mg/kg—P=0.0373). (C) Cam-003 (45 mg/kg—P=0.0007; 15 mg/kg—P=0.0019; 5 mg/kg—P=0.0212). (D) Cam-003 (45 mg/kg—P<0.0001; 15 mg/kg—P<0.0001; 5 mg/kg—P=0.0001). Results are representative of at least two independent experiments. […]

B1: WapR-004: anti-Psl antibody, VH SEQ ID NO: 11 and VL SEQ ID NO: 12 (antibody, V domains shown)
VH: EVQLLESGPGLVKPSETLSLTCNVAGGSISPYYWTWIRQPPGKGLELIGYIHSSGYTDYNPSLKSRVTISGDTSKKQFSLHVSSVTAADTAVYFCARGDWDLLHALDIWGQGTLVTVSS
VL: EIVLTQSPSSLSTSVGDRVTITCRASQSIRSHLNWYQQKPGKAPKLLIYGASNLQSGVPSRFSGSGSGTDFTLTISSLQPEDFATYYCQQSYSFPLTFGGGTKLEIK
modifications: WapR-004 VH; WapR-004 & WarR-004RAD VL
survival: significant concentration-dependent survival
